Experimental data reported in US20200262928A1 (GREEN CROSS, published 2020).

Legend:
[1] = target: human MSLN expressed on cancer cell surface (human) (UniProt Q13421); experiment: flow cytometry on H226 cells expressing MSLN, control antibody, PE-conjugated anti-human IgG detection
[2] = target: human MSLN expressed on cancer cell surface (human) (UniProt Q13421); experiment: flow cytometry on PL45 cells expressing MSLN, control antibody, PE-conjugated anti-human IgG detection
[3] = target: human MSLN expressed on cancer cell surface (human) (UniProt Q13421); experiment: flow cytometry on AsPC1 cells expressing MSLN, control antibody, PE-conjugated anti-human IgG detection
[4] = target: human MSLN expressed on cancer cell surface (human) (UniProt Q13421); experiment: flow cytometry on Capan2 cells expressing MSLN, control antibody, PE-conjugated anti-human IgG detection
recombinant human MSLN = target: T1, recombinant human MSLN (human, UniProt Q13421 296-580, limits assumed); experiment: BLI (Octet), MSLN on anti-Penta His sensor, antibody 3.125-50 nM
T1 construct: It was fixed to an anti-Penta His (HIS1K) sensor, so a His tag is implied; also called recombinant MSLN; mesothelin
T1 sequence (Q13421 other isoform, or with tags, fused parts or gaps limits assumed): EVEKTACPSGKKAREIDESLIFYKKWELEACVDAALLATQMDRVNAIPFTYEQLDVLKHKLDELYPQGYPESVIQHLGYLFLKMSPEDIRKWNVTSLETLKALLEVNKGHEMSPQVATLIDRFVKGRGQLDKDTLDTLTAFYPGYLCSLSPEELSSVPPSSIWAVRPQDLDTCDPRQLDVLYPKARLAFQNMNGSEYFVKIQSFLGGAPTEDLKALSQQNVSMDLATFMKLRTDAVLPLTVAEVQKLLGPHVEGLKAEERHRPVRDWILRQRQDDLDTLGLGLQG
Description: Specifically, recombinant human MSLN was prepared at a concentration of 5 μg/ml in 1× kinetic buffer and used to treat a 96-well-plate at 200 μl/well. The MSLN after treatment was fixed to the anti-Penta His (HIS1K, Cat #18-5121, Fortebio) sensor.
Then, the 3 humanized anti-MSLN antibodies produced in accordance with Example 1 and the mouse human chimeric MI323 IgG1 clones were diluted to a concentration of 50, 25, 12.5, 6.25, or 3.125 nM in 1× kinetic buffer, and treatment therewith was performed at 200 μl/well. For the 1×kinetic buffer, one obtained by 10-fold dilution of 10×kinetic buffer (ForteBio, Cat #18-1092) with PBS was used.
The interaction between the MSLN fixed to the sensor and the antibody at several concentrations was analyzed to calculate antigen-antibody affinity, and the results are shown in Table 4 below.

Sequence of human MSLN expressed on cancer cell surface (human) (Q13421 other isoform, or with tags, fused parts or gaps limits assumed): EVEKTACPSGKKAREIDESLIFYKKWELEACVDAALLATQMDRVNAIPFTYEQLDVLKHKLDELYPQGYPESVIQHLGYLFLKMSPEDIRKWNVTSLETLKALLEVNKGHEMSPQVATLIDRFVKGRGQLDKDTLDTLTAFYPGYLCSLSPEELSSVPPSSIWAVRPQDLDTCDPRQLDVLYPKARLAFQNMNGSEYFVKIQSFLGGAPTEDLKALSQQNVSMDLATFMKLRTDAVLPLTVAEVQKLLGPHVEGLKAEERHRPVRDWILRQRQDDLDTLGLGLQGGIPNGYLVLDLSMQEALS

hIgG (antibody)
MFI [1]: 120
MFI [2]: 96.5
MFI [3]: 85.9
MFI [4]: 169

B1: mouse/human chimeric MI323 IgG1 (antibody, V domains shown)
VH: EVQLQQSGPELVKPGTSVKISCKASGYSFTSYFIQWVKQRPGQGLEWIGWIFPGSGNTKYNEMFKGKATLAADTSSSTAYMQLSSLTSEDSAVYFCARSGGYQYYFDYWGQGTSVTVSS
VL: DIVMTQSHKFMSTSVGDRVSITCKASQDVSTAVAWYQQKPGQSPKLLIYSASYRYPGVPDRFTGSGSGTDFTFTISSVQAEDLALYYCQQHYSTPWTFGGGTKLEIKR
notes: Control antibody; also called mouse human chimeric MI323 IgG1 antibody; MI323 antibody
Kd (recombinant human MSLN): 28.6 pM
koff (recombinant human MSLN): 1.3e-05 s⁻¹
kon (recombinant human MSLN): 454000 M⁻¹ s⁻¹

B2: HMI323VL-1/HMI323VH-3 IgG1 (antibody, V domains shown)
VH: EVQLVQSGAEVKKPGTSVKVSCKASGYSFTSYFIQWVRQAPGQGLEWIGWIFPGSGNTKYSQKFQGRVTITRDTSTSTAYMELSSLRSEDTAVYYCARSGGYQYYFDYWGQGTLVTVSS
VL: DIQMTQSPSSLSASVGDRVTITCRASQDVSTAVAWYQQKPGKAPKLLIYSASYRYPGVPSRFSGSGSGTDFTLTISSLQPEDFATYYCQQHYSTPWTFGGGTKLEIKR
notes: also called humanized MI323 IgG1
Kd (recombinant human MSLN): 32.7 pM
koff (recombinant human MSLN): 2.75e-05 s⁻¹
kon (recombinant human MSLN): 842000 M⁻¹ s⁻¹

B3: HMI323VL-1/HMI323VH-1 (antibody, human IgG1, kappa, V domains shown)
VH: QVQLVQSGAEVKKPGASVKVSCKASGYSFTSYFMHWVRQAPGQRLEWMGWIFPGNGNTKYSQKFQGRVTITRDTSASTAYMELSSLRSEDTAVYYCARSGGYQYYFDYWGQGTLVTVSS
VL: DIQMTQSPSSLSASVGDRVTITCRASQDVSTAVAWYQQKPGKAPKLLIYSASYRYPGVPSRFSGSGSGTDFTLTISSLQPEDFATYYCQQHYSTPWTFGGGTKLEIKR
notes: also called humanized MI323 IgG1 (VL-1/VH-1)
Kd (recombinant human MSLN): 139 pM
koff (recombinant human MSLN): 9.25e-05 s⁻¹
kon (recombinant human MSLN): 665000 M⁻¹ s⁻¹

B4: HMI323VL-1/HMI323VH-2 (antibody, human IgG1, kappa, V domains shown)
VH: QVQLVQSGAEVKKPGSSVKVSCKASGYSFTSYFISWVRQAPGQGLEWMGGIFPGSGNANYAQKFQGRVTITADESTSTAYMELSSLRSEDTAVYYCARSGGYQYYFDYWGQGTLVTVSS
VL: DIQMTQSPSSLSASVGDRVTITCRASQDVSTAVAWYQQKPGKAPKLLIYSASYRYPGVPSRFSGSGSGTDFTLTISSLQPEDFATYYCQQHYSTPWTFGGGTKLEIKR
notes: also called humanized MI323 IgG1 (VL-1/VH-2)
Kd (recombinant human MSLN): 273 pM
koff (recombinant human MSLN): 0.000509 s⁻¹
kon (recombinant human MSLN): 1.86e+06 M⁻¹ s⁻¹
